Assay results as given in paper PMC2064741 (The Journal of Cell Biology, 2007).
Read-outs that look alike come from different tables or passages of the source. One block for each binder: values may come before it.

Assays:
[1] = molecular target: the molecule itself; assay: AUC
[2] = molecular target: T1, Fmn2-FH2 (formin-2 residues 1,124-1,567) ( (printed as m-Fmn2, …, UniProt Q9JL04 1135-1578)); assay: fluorescence polarisation
[3] = molecular target: T1, Fmn2-FH2 (formin-2 residues 1,124-1,567); assay: inhibition of formin-driven pyrene-actin assembly
[4] = molecular target: phalloidin-stabilized actin filaments; assay: co-sedimentation
[5] = molecular target: phalloidin-stabilized actin filaments; assay: co-sedimentation; remark: listed apart in the source
[6] = molecular target: T2, Capu-FH1FH2 (Drosophila Capu residues 467-1,058) (Drosophila, UniProt Q24120 467-1058); assay: co-sedimentation
T2 sequence: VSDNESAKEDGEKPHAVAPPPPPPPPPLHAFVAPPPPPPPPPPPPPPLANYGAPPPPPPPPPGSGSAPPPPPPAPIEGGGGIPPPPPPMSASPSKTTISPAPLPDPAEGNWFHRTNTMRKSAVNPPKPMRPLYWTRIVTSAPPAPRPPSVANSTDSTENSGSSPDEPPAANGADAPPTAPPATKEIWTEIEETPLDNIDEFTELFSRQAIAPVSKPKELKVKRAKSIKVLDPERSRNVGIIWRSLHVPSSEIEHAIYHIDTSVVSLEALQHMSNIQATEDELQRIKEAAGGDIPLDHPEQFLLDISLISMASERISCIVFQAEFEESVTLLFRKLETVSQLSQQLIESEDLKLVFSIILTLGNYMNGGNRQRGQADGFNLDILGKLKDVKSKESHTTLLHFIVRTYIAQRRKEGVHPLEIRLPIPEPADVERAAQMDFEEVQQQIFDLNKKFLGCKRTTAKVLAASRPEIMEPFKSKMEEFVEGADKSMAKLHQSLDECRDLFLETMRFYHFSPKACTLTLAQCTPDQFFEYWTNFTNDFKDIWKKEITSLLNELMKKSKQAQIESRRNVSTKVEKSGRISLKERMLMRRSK

[7] = molecular target: T3, Capu-FH2 (Drosophila Capu residues 573-1,058) (Drosophila, UniProt Q24120 573-1058); assay: inhibition of formin-driven pyrene-actin assembly
T3 sequence: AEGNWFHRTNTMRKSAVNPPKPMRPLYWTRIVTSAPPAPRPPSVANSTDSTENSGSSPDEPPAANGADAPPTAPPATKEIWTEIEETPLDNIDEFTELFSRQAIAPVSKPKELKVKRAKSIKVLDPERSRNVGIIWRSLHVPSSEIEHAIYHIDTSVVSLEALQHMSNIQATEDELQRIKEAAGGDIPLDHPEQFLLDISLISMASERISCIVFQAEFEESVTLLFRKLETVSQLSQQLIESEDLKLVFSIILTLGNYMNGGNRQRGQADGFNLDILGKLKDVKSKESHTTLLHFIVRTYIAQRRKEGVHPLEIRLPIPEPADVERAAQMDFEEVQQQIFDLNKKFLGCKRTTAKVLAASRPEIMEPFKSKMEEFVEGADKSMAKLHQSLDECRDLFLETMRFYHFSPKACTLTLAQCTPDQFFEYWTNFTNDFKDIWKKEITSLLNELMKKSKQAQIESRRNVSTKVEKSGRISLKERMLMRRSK

[8] = molecular target: T2, Capu-FH1FH2 (Drosophila Capu residues …); assay: fluorescence polarisation
[9] = molecular target: T2, Capu-FH1FH2 (Drosophila Capu residues …); assay: fluorescence polarisation; remark: listed apart in the source
[10] = molecular target: T3, Capu-FH2 (Drosophila Capu residues …); assay: fluorescence polarisation
[11] = molecular target: T2, Capu-FH1FH2 (Drosophila Capu residues …); assay: other fluorescence titration

T1 sequence (Q9JL04 1135-1578): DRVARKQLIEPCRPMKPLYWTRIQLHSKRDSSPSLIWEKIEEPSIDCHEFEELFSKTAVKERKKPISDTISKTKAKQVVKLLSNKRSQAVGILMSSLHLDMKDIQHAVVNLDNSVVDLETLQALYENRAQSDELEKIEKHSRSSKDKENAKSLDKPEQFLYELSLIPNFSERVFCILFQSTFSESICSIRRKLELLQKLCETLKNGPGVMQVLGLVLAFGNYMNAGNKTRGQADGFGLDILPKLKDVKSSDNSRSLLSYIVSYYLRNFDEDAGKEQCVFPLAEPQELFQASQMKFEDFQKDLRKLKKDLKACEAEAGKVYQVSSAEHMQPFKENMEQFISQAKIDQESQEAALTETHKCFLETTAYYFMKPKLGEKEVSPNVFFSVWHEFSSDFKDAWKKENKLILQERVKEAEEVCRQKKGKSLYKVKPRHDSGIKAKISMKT

B1: AlexaFluor488-labeled Capu-FH1FH2 with C-terminal Lys-Cys-Lys (domain or fragment)
chain: VSDNESAKEDGEKPHAVAPPPPPPPPPLHAFVAPPPPPPPPPPPPPPLANYGAPPPPPPPPPGSGSAPPPPPPAPIEGGGGIPPPPPPMSASPSKTTISPAPLPDPAEGNWFHRTNTMRKSAVNPPKPMRPLYWTRIVTSAPPAPRPPSVANSTDSTENSGSSPDEPPAANGADAPPTAPPATKEIWTEIEETPLDNIDEFTELFSRQAIAPVSKPKELKVKRAKSIKVLDPERSRNVGIIWRSLHVPSSEIEHAIYHIDTSVVSLEALQHMSNIQATEDELQRIKEAAGGDIPLDHPEQFLLDISLISMASERISCIVFQAEFEESVTLLFRKLETVSQLSQQLIESEDLKLVFSIILTLGNYMNGGNRQRGQADGFNLDILGKLKDVKSKESHTTLLHFIVRTYIAQRRKEGVHPLEIRLPIPEPADVERAAQMDFEEVQQQIFDLNKKFLGCKRTTAKVLAASRPEIMEPFKSKMEEFVEGADKSMAKLHQSLDECRDLFLETMRFYHFSPKACTLTLAQCTPDQFFEYWTNFTNDFKDIWKKEITSLLNELMKKSKQAQIESRRNVSTKVEKSGRISLKERMLMRRSKKCK
modifications: AlexaFluor488-maleimide on the cysteine of the C-terminal Lys-Cys-Lys (~100% labeled)
- stoichiometry N [1]: 2

B2: AlexaFluor488-labeled Spir-1–KIND (human Spir-1 residues 2-271) (domain or fragment)
chain: AQAAGPAGGGEPRTEAVGGEGPREPGAAGGAAGGSRDALSLEEILRLYNQPINEEQAWAVCYQCCGSLRAAARRRQPRHRVRSAAQIRVWRDGAVTLAPAADDAGEPPPVAGKLGYSQCMETEVIESLGIIIYKALDYGLKENEERELSPPLEQLIDHMANTVEADGSNDEGYEAAEEGLGDEDEKRKISAIRSYRDVMKLCAAHLPTESDAPNHYQAVCRALFAETMELHTFLTKIKSAKENLKKIQEMEKSDESSTDLEELKNADWAR
- Kd [2]: 300 ± 60 nM

B3: Spir-1–KIND (human Spir-1 residues 2-271), unlabeled (domain or fragment)
chain: AQAAGPAGGGEPRTEAVGGEGPREPGAAGGAAGGSRDALSLEEILRLYNQPINEEQAWAVCYQCCGSLRAAARRRQPRHRVRSAAQIRVWRDGAVTLAPAADDAGEPPPVAGKLGYSQCMETEVIESLGIIIYKALDYGLKENEERELSPPLEQLIDHMANTVEADGSNDEGYEAAEEGLGDEDEKRKISAIRSYRDVMKLCAAHLPTESDAPNHYQAVCRALFAETMELHTFLTKIKSAKENLKKIQEMEKSDESSTDLEELKNADWAR
- Ki [3]: 190 ± 40 nM

B4: Capu-FH1FH2 (Drosophila Capu residues 467-1,058) (domain or fragment)
chain: VSDNESAKEDGEKPHAVAPPPPPPPPPLHAFVAPPPPPPPPPPPPPPLANYGAPPPPPPPPPGSGSAPPPPPPAPIEGGGGIPPPPPPMSASPSKTTISPAPLPDPAEGNWFHRTNTMRKSAVNPPKPMRPLYWTRIVTSAPPAPRPPSVANSTDSTENSGSSPDEPPAANGADAPPTAPPATKEIWTEIEETPLDNIDEFTELFSRQAIAPVSKPKELKVKRAKSIKVLDPERSRNVGIIWRSLHVPSSEIEHAIYHIDTSVVSLEALQHMSNIQATEDELQRIKEAAGGDIPLDHPEQFLLDISLISMASERISCIVFQAEFEESVTLLFRKLETVSQLSQQLIESEDLKLVFSIILTLGNYMNGGNRQRGQADGFNLDILGKLKDVKSKESHTTLLHFIVRTYIAQRRKEGVHPLEIRLPIPEPADVERAAQMDFEEVQQQIFDLNKKFLGCKRTTAKVLAASRPEIMEPFKSKMEEFVEGADKSMAKLHQSLDECRDLFLETMRFYHFSPKACTLTLAQCTPDQFFEYWTNFTNDFKDIWKKEITSLLNELMKKSKQAQIESRRNVSTKVEKSGRISLKERMLMRRSK
- Kd [4]: 7 nM
- Kd [5]: 6 nM

B7: AlexaFluor488-labeled KIND (Drosophila Spir residues 1-327) (domain or fragment)
chain: MTEHQAEEQADTPPTKVKATPTPTPSGKFKDAKEDAFLSTSPDSANGDAQHKLPADQLAMSSSAHPQQAGQARPLILQAFHRCSSPEQCVTLHDILDSFKAPLSEDQAWALIHQFAGLYHQVAVQAHTCAADYEAALPTGFELHFHRDGSVHFSGPDQLTPKEQLQQEQIPLPPQHDVIVDQPDHSASSSGDSSVINRAFDNSNHHHHHQHHHPPLVVSHRKIISELAEIVYTALDYNLPEDEECQVSQELENLFNFMTADETDDDCIDEGIDEGDKRWDDESEEERNDTKELEHIIETCRNHIKTTLPENHYRAVCRALVTETIEL
- Kd [9]: 1 ± 2 nM
- Kd [10]: 9 ± 6 nM

Second part, the binder after the results:

- binding result [6]: binds
B5: NTSpir (Drosophila Spir residues 1-520) (domain or fragment)
chain: MTEHQAEEQADTPPTKVKATPTPTPSGKFKDAKEDAFLSTSPDSANGDAQHKLPADQLAMSSSAHPQQAGQARPLILQAFHRCSSPEQCVTLHDILDSFKAPLSEDQAWALIHQFAGLYHQVAVQAHTCAADYEAALPTGFELHFHRDGSVHFSGPDQLTPKEQLQQEQIPLPPQHDVIVDQPDHSASSSGDSSVINRAFDNSNHHHHHQHHHPPLVVSHRKIISELAEIVYTALDYNLPEDEECQVSQELENLFNFMTADETDDDCIDEGIDEGDKRWDDESEEERNDTKELEHIIETCRNHIKTTLPENHYRAVCRALVTETIELRVFLQQVLNNEAGAEKLIKASESSATTQQELAKLGFNDWARFWVQVIDELRRGVRLKKSNHERTPIEYELTPYEILMGDIRAKKYQLRKVMVNGDIPPRVKKDAHAMILEFIRSRPPLKKASDRQLGPPRMCEPSPREQLMESIRKGKELKQITPPEAPTLRERVLPSANSTLSRSRQRLIKVDFSKFQDDDL

- Ki [7]: 5 ± 1 nM
- Kd [8]: 5 ± 3 nM
B6: KIND (Drosophila Spir residues 1-327), unlabeled (domain or fragment)
chain: MTEHQAEEQADTPPTKVKATPTPTPSGKFKDAKEDAFLSTSPDSANGDAQHKLPADQLAMSSSAHPQQAGQARPLILQAFHRCSSPEQCVTLHDILDSFKAPLSEDQAWALIHQFAGLYHQVAVQAHTCAADYEAALPTGFELHFHRDGSVHFSGPDQLTPKEQLQQEQIPLPPQHDVIVDQPDHSASSSGDSSVINRAFDNSNHHHHHQHHHPPLVVSHRKIISELAEIVYTALDYNLPEDEECQVSQELENLFNFMTADETDDDCIDEGIDEGDKRWDDESEEERNDTKELEHIIETCRNHIKTTLPENHYRAVCRALVTETIEL

- Kd [11]: 2400 ± 900 nM
B8: AlexaFluor488-labeled WH2 cluster, KCK-WH2(C459S) (Drosophila Spir residues 366-482) (domain or fragment)
chain: KCKWARFWVQVIDELRRGVRLKKSNHERTPIEYELTPYEILMGDIRAKKYQLRKVMVNGDIPPRVKKDAHAMILEFIRSRPPLKKASDRQLGPPRMSEPSPREQLMESIRKGKELKQITP
modifications: AlexaFluor488-maleimide on the cysteine of the N-terminal Lys-Cys-Lys (~100% labeled)
